In FireProtDB (doi:10.1093/protein/gzl019):

Conditions: Bacillus caldolyticus, pH 7, Thermal, Na cacodylate/HCl 0.1 M, reversible: Yes, whole UniProt chain shown

B1: Cold shock protein CspB wild type, P41016 (protein)
chain: MQRGKVKWFNNEKGYGFIEVEGGSDVFVHFTAIQGEGFKTLEEGQEVSFEIVQGNRGPQAANVVKL
- Tm (CD): 76.9 °C
- unfolding enthalpy (van 't Hoff) (CD): 58.6 kcal/mol
- Tm (DSC): 76.9 °C
- unfolding enthalpy (calorimetric) (DSC): 61.4 kcal/mol
